Results from US12139520B2 (priority 2020, dated 2024).
Numbered stars: 1 amine (or outer) side, 2 acyl side, 3 side chain; on linkers, the order of the positions; unused ones are H or OH. Bridge positions count the residues as written; N and C are the ends. Square brackets hold non-standard residues; d marks the D form. Side chains are listed from the residue outwards. Ends that are not written are not given here. * marks the point of attachment. C20 diacid = O=C(O)CCCCCCCCCCCCCCCCCCC(=O)*; γGlu = O=C(O)[C@H](CCC(=O)[*:2])N[*:1]; Hyp = O=C(O)[C@@H]1C[C@@H](O)CN1; Cit = NC(=O)NCCC[C@H](N)C(=O)O; AEEA = NCCOCCOCC(=O)O

T1: hAMY3R (human, UniProt P30988)
T1 sequence 1: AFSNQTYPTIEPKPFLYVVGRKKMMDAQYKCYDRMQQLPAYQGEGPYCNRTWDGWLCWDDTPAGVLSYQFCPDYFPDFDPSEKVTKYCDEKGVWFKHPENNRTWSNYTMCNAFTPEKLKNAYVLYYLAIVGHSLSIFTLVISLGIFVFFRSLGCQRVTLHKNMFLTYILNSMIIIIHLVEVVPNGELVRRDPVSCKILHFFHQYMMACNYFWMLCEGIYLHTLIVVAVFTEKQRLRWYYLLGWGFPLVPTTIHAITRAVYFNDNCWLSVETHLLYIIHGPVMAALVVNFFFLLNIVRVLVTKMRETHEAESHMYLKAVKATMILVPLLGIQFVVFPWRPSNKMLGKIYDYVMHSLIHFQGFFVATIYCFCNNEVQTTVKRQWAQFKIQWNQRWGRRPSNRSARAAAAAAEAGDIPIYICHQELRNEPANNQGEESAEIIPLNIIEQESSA
T1 sequence 2: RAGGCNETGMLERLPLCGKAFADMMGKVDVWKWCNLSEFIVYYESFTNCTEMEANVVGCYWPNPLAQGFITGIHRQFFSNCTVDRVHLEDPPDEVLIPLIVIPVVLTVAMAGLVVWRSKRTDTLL


What was measured:
hAMY3R = molecular target: T1, hAMY3R; assay: cell-based or functional assay
hAM1R = hAM1R (human, UniProt Q16602); assay: cell-based or functional assay

hAMY3R EC50 (cAMP) (hAMY3R) [nM] | hAM1R EC50 (cAMP) (hAM1R) [nM] | Binder
0.04 | > 5000 | KCNTATCATQRLANFLVHSSNNFGAILSSTKIGSNGY [SEQ ID NO: 148]
0.051 | > 5000 | KCNTATCATQRLANFLVHSSNNFGAILPSTKIGPNGY [SEQ ID NO: 162]
0.01 | > 5000 | KCNTATCATQRLANFLVHSSNNFGAILSSTNVGSNTY (ligand, disulfide 2-7) [hAMY1-37]
0.04 | > 5000 | KCNTATCATQRLANFLVHSSNNFGAILPSTKVGPNGY [SEQ ID NO: 149]
0.048 | 2980 | GCRFGTCTVQRLAHQIYQFTDKDKDNVAPRSNISPQG[Hyp]-NH2 (disulfide 2-7 (inferred); ends not checked) [SEQ ID NO: 158]
0.048 | > 5000 | {C20 diacid-γGlu}-KCNTATCTVIRLAHQIYQFTDKDKDNVAPPTNVGSNG[Hyp]-NH2 (disulfide 2-7 (inferred); ends not checked) [SEQ ID NO: 159]
0.04 | 3110 | GCRIGTCTVQRLAHQIYQFTDKFKDNVAPRSKISPQT[Hyp]-NH2 (disulfide 2-7 (inferred); ends not checked) [SEQ ID NO: 147]
0.047 | 2980 | GCRTGTCTVQRLAHQIYQFTDKDKDNVAPRSKIGPNG[Hyp]-NH2 (disulfide 2-7 (inferred); ends not checked) [SEQ ID NO: 157]
0.051 | 2980 | GCRTGTCTVQRLAHQIYQFTDKDKDNVAPRTKIGPQG[Hyp]-NH2 (disulfide 2-7 (inferred); ends not checked) [SEQ ID NO: 161]
0.04 | 2980 | GCRFGTCTVQRLAHQIYQFTDKDKDNVAPRTKISPQG[Hyp]-NH2 (disulfide 2-7 (inferred); ends not checked) [SEQ ID NO: 146]
0.041 | 44.9 | GCRTGTCTVQRLAHQIYQFTDKDKDNVAPRSNIGPNG[Hyp]-NH2 (disulfide 2-7 (inferred); ends not checked) [SEQ ID NO: 151]
0.04 | > 5000 | GCRWGTCTVQRLAHQIYQFTDKDKDNVAPRSKISPQT[Hyp]-NH2 (disulfide 2-7 (inferred); ends not checked) [SEQ ID NO: 150]
0.054 | 106 | GCRFGTCTVQRLAHQIYQFTDKDKDNVAPRTKISPQGY [SEQ ID NO: 164]
0.041 | > 5000 | {C20 diacid-γGlu}-KCNTATCTVQ[Cit]LAEQIAQFTDKDKDNVAPPTNVGSNG[Hyp]-NH2 (disulfide 2-7 (inferred); ends not checked) [SEQ ID NO: 153]
0.053 | 2980 | GCRTGTCTVQRLAHQIYQFTDKDKDNVAPRTNVSPNG[Hyp]-NH2 (disulfide 2-7 (inferred); ends not checked) [SEQ ID NO: 163]
0.054 | 2980 | GCRTGTCTVQRLAHQIYQFTDKDKDNVAPRSNIGPQG[Hyp]-NH2 (disulfide 2-7 (inferred); ends not checked) [SEQ ID NO: 165]
0.041 | 213 | GCRFGTCTVQRLAHQIYQFTDKDKDNVAPRSKVGPQG[Hyp]-NH2 (disulfide 2-7 (inferred); ends not checked) [SEQ ID NO: 152]
0.047 | 2980 | GCRTGTCTVQRLAHQIYQFTDKDKDNVAPRTKVGPQGY [SEQ ID NO: 156]
0.045 | 116 | GCRFGTCTVQRLAHQIYQFTDKDKDNVAPRTKVSPQGY [SEQ ID NO: 155]
0.042 | 2980 | GCRFGTCTVQRLAHQIYQFTDKDKDNVAPRSKISPQGY [SEQ ID NO: 154]
0.05 | 2980 | GCRTGTCTVQRLAHQIYQFTDKDKDNVAPRTNIGPQGY [SEQ ID NO: 160]

More lines, now with the values behind:

Binder | hAMY3R EC50 (cAMP) (hAMY3R) [nM] | hAM1R EC50 (cAMP) (hAM1R) [nM]
GCRFGTCTVQRLAHQIYQFTDKDKDNVAPRSNVGPQG[Hyp]-NH2 (disulfide 2-7 (inferred); ends not checked) [SEQ ID NO: 135] | 0.033 | 68.4
GCRFGTCTVQRLAHQIYQFTDKDKDNVAPRSNVSPQG[Hyp]-NH2 (disulfide 2-7 (inferred); ends not checked) [SEQ ID NO: 145] | 0.039 | 2980
KCNTATCTVQRLAEQIK([AEEA-AEEA-γGlu-C20 diacid])QFTDKDKDNVAPPTNVGSNG[Hyp]-NH2 (disulfide 2-7 (inferred); ends not checked) [SEQ ID NO: 136] | 0.033 | > 5000
GCRFGTCTVQRLAHQIYQFTDKDKDNVAPRTNISPQG[Hyp]-NH2 (disulfide 2-7 (inferred); ends not checked) [SEQ ID NO: 141] | 0.036 | 258
{C20 diacid-γGlu}-KCNTATCTVARLAHQINQFTDKDKDPVAPPTNVGSNG[Hyp]-NH2 (disulfide 2-7 (inferred); ends not checked) [SEQ ID NO: 137] | 0.034 | > 5000
GCRTGTCTVQRLAHQIYQFTDKDKDNVAPRSKVGPNG[Hyp]-NH2 (disulfide 2-7 (inferred); ends not checked) [SEQ ID NO: 139] | 0.035 | 2980
GCRFGTCTVQRLANFLYQFTDKDKDNVAPRTNVGPQGY [SEQ ID NO: 16] | 0.008 | 125
KCNFATCTVQRLAHQIYQFTDKDKDNVAPRTEVGSNG[Hyp]-NH2 (disulfide 2-7 (inferred); ends not checked) [SEQ ID NO: 17] | 0.008 | 295
{C20 diacid-γGlu}-KCNTATCTVQRLAEQIAQFTDKDKDPVAPPTNVGSNG[Hyp]-NH2 (disulfide 2-7 (inferred); ends not checked) [SEQ ID NO: 144] | 0.038 | > 5000
KCNTSTCTVARLADQITQFSDKDKANVSPPTEVGPNS[Hyp]-NH2 (disulfide 2-7 (inferred); ends not checked) [SEQ ID NO: 15] | 0.007 | > 5000
KCNTATCTVQRLAHQIAQFTDKDKDNVAPPTNVGSNG[Hyp]-NH2 (disulfide 2-7 (inferred); ends not checked) [SEQ ID NO: 14] | 0.007 | > 5000
GCRTGTCTVQRLAHQIYQFTDKDKDNVAPRTKVGPQG[Hyp]-NH2 (disulfide 2-7 (inferred); ends not checked) [SEQ ID NO: 143] | 0.038 | 2980
GCRTGTCTVQRLAHQIYQFTDKDKDNVAPRSNVGPQGY [SEQ ID NO: 138] | 0.035 | 2980
GCRFGTCTVQRLAHQIYQFTDKDKDNVAPRTNISPQGY [SEQ ID NO: 140] | 0.036 | 31.4
GCRTGTCTVQRLAHQIYQFTDKDKDNVAPRTNIGPNGY [SEQ ID NO: 142] | 0.036 | 2980
